According to PMC8208478, “A Bacteriophage DNA Mimic Protein Employs a Non-specific Strategy to Inhibit the Bacterial RNA Polymerase” (Frontiers in Microbiology, 2021):

Target: T1, His-tagged Gp44, full length (1–237) (bacteriophage SPO1)
T1 construct: Gp44, product of gene 44 of bacteriophage SPO1 of Bacillus subtilis, full length, residues 1-237, 27 kDa; The purified constructs came from pET-46 EK/LIC, which adds an N-terminal His-tag; C-terminal His-tagged and tag-free constructs (pDE2) were also made; PDB 6L6V holds only residues 1-55; also called Gp44^(1–237); recombinant Gp44; not shown: His-tag, N-terminal, kept
Assay: ITC; MicroCal PEAQ-ITC, 25°C, dialysis buffer; 30 μM β or β′ subunit in the cell, 300 μM Gp44 in the syringe, 19 injections of 2 μL at 120 s intervals
Conditions: both partners purified

B1: recombinant RNAP β subunit used in ITC (species not named) (natural protein)
chain: MTGQLVQYGRHRQRRSYARISEVLELPNLIEIQTSSYQWFLDEGLREMFQDISPIEDFTGNLSLEFIDYSLGEPKYPVEESKERDVTYSAPLRVKVRLINKETGEVKDQDVFMGDFPIMTDTGTFIINGAERVIVSQLVRSPSVYFSGKVDKNGKKGFTATVIPNRGAWLEYETDAKDVVYVRIDRTRKLPVTVLLRALGFGSDQEILDLIGENEYLRNTLDKDNTENSDKALLEIYERLRPGEPPTVENAKSLLDSRFFDPKRYDLANVGRYKINKKLHIKNRLFNQRLAETLVDPETGEILAEKGQILDRRTLDKVLPYLENGIGFRKLYPNGGVVEDEVTLQSIKIFAPTDQEGEQVINVIGNAYIEEEIKNITPADIISSISYFFNLLHGVGDTDDIDHLGNRRLRSVGELLQNQFRIGLSRMERVVRERMSIQDTNTITPQQLINIRPVIASIKEFFGSSQLSQFMDQTNPLAELTHKRRLSALGPGGLTRERAGMEVRDVHYSHYGRMCPIETPEGPNIGLINSLSSYAKVNRFGFIETPYRRVDPETGKVTGRIDYLTADEEDNYVVAQANARLDDEGAFIDDSIVARFRGENTVVSRNRVDYMDVSPKQVVSAATACIPFLENDDSNRALMGANMQRQAVPLMQPEAPFVGTGMEYVSGKDSGAAVICKHPGIVERVEAKNVWVRRYEEVDGQKVKGNLDKYSLLKFVRSNQGTCYNQRPIVSVGDEVVKGEILADGPSMELGELALGRNVMVGFMTWDGYNYEDAIIMSERLVKDDVYTSIHIEEYESEARDTKLGPEEITRDIPNVGEDALRNLDDRGIIRIGAEVKDGDLLVGKVTPKGVTELTAEERLLHAIFGEKAREVRDTSLRVPHGGGGIIHDVKVFNREDGDELPPGVNQLVRVYIVQKRKISEGDKMAGRHGNKGVISKILPEEDMPYLPDGTPIDIMLNPLGVPSRMNIGQVLELHMGMAARYLGIHIASPVFDGAREEDVWETLEEAGMSRDAKTVLYDGRTGEPFDNRVSVGIMYMIKLAHMVDDKLHARSTGPYSLVTQQPLGGKAQFGGQRFGEMEVWALEAYGAAYTLQEILTVKSDDVVGRVKTYEAIVKGDNVPEPGVPESFKVLIKELQSLGMDVKILSGDEEEIEMRDLEDEEDAKQADGLALSGDEEPEETASADVERDVVTKE
**Q.** B1 was tested. Which Kd did it give?
**A.** 3.46 ± 0.27 µM
